Test results taken from the supplement of paper PMC9112550, “Optimization of the antimicrobial peptide Bac7 by deep mutational scanning” (BMC Biology, 2022).

system: Escherichia coli TOP10; test: shrunken log2 fold change of peptide-encoding DNA abundance (4.5 h post-induction vs induction); higher = less antimicrobial activity (less host growth inhibition); conditions: time post-induction: 4.5 h; library: site-saturation at positions 5, 18, 19, 20
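Further: peptides expressed intracellularly from a pBAD plasmid library in pooled LB shake-flask culture, induced with 0.3% L-arabinose, DNA abundance read by NGS, three biological replicates, DESeq2 with apeglm shrinkage.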

Sequence	shrunken log2 fold change
RRIRKRPPRLPRPRPRPWIKPRP	-0.00314
RRIRHRPPRLPRPRPRPWTHPRP	-0.00208
RRIRGRPPRLPRPRPRPDHMPRP	0.0349
RRIRNRPPRLPRPRPRPKCMPRP	-0.0394
RRIRNRPPRLPRPRPRPEMHPRP	0.191
RRIRHRPPRLPRPRPRPLYCPRP	-0.327
RRIRLRPPRLPRPRPRPNGYPRP	-0.315
RRIRWRPPRLPRPRPRPMHWPRP	0.194
RRIRVRPPRLPRPRPRPPSNPRP	-0.034
RRIRERPPRLPRPRPRPDRHPRP	-0.0302
RRIRVRPPRLPRPRPRPKFDPRP	0.21
RRIRTRPPRLPRPRPRPWPTPRP	0.371
RRIRPRPPRLPRPRPRPMPCPRP	0.0941
RRIRVRPPRLPRPRPRPHYLPRP	0.00696
RRIRWRPPRLPRPRPRPHMCPRP	-0.00659
RRIRKRPPRLPRPRPRPRAVPRP	0.849
RRIRARPPRLPRPRPRPDAWPRP	1.05
RRIRVRPPRLPRPRPRPSQVPRP	-0.215
RRIRYRPPRLPRPRPRPFKQPRP	-1.41
RRIRYRPPRLPRPRPRPKSYPRP	-0.101
RRIRVRPPRLPRPRPRPKCWPRP	0.313
RRIRFRPPRLPRPRPRPYKDPRP	-0.213
RRIRSRPPRLPRPRPRPPWPPRP	0.51
RRIRKRPPRLPRPRPRPVVQPRP	0.242
RRIRLRPPRLPRPRPRPFKMPRP	-0.388

Sequence	shrunken log2 fold change
RRIRKRPPRLPRPRPRPNPIPRP	0.0804
RRIRFRPPRLPRPRPRPPNWPRP	0.211
RRIRKRPPRLPRPRPRPSMAPRP	0.0554
RRIRFRPPRLPRPRPRPIWHPRP	-0.0746
RRIRRRPPRLPRPRPRPFYGPRP	-0.0114
RRIRPRPPRLPRPRPRPDRRPRP	0.192
RRIRQRPPRLPRPRPRPQPRPRP	0.48
RRIRGRPPRLPRPRPRPTDMPRP	1.1
RRIRPRPPRLPRPRPRPCLTPRP	-0.0809
RRIRKRPPRLPRPRPRPLDGPRP	0.105
RRIRFRPPRLPRPRPRPWYSPRP	-0.0415
RRIRSRPPRLPRPRPRPGTSPRP	-0.167
RRIRERPPRLPRPRPRPVGQPRP	0.129
RRIRFRPPRLPRPRPRPVPGPRP	0.1
RRIRSRPPRLPRPRPRPLLIPRP	-0.0597
RRIRQRPPRLPRPRPRPVVQPRP	-0.0933
RRIRWRPPRLPRPRPRPFMVPRP	-0.371
RRIRLRPPRLPRPRPRPTVVPRP	-0.0551
RRIRMRPPRLPRPRPRPRVWPRP	2.08
RRIRWRPPRLPRPRPRPVFWPRP	0.386
RRIRYRPPRLPRPRPRPHATPRP	-0.191
RRIRYRPPRLPRPRPRPDYKPRP	-0.136
RRIRARPPRLPRPRPRPFEVPRP	0.455
RRIRGRPPRLPRPRPRPTRNPRP	1.61
RRIRLRPPRLPRPRPRPWNLPRP	-0.0149

Sequence	shrunken log2 fold change
RRIRRRPPRLPRPRPRPVKGPRP	-0.0795
RRIRTRPPRLPRPRPRPTACPRP	0.277
RRIRHRPPRLPRPRPRPVDFPRP	0.0522
RRIRKRPPRLPRPRPRPVRCPRP	0.746
RRIRERPPRLPRPRPRPSKHPRP	-0.775
RRIRWRPPRLPRPRPRPTCRPRP	0.0452
RRIRPRPPRLPRPRPRPELDPRP	0.0969
RRIRHRPPRLPRPRPRPVDVPRP	-0.119
RRIRIRPPRLPRPRPRPRMMPRP	-0.293
RRIRWRPPRLPRPRPRPNVHPRP	0.0272
RRIRTRPPRLPRPRPRPAYIPRP	0.412
RRIRERPPRLPRPRPRPHTHPRP	-1.01
RRIRKRPPRLPRPRPRPLLNPRP	-0.295
RRIRKRPPRLPRPRPRPFLFPRP	-0.0622
RRIRMRPPRLPRPRPRPTHSPRP	0.483
RRIRTRPPRLPRPRPRPRKIPRP	-0.0707
RRIRKRPPRLPRPRPRPMNPPRP	0.0725
RRIRHRPPRLPRPRPRPEPWPRP	0.171
RRIRTRPPRLPRPRPRPGQGPRP	0.0576
RRIRARPPRLPRPRPRPSSQPRP	0.144
RRIRQRPPRLPRPRPRPRRNPRP	0.327
RRIRTRPPRLPRPRPRPGGEPRP	0.443
RRIRWRPPRLPRPRPRPDVHPRP	-0.0103
RRIRYRPPRLPRPRPRPHKFPRP	-0.609
RRIRRRPPRLPRPRPRPGVRPRP	0.318

Sequence	shrunken log2 fold change
RRIRSRPPRLPRPRPRPTHYPRP	-0.125
RRIRNRPPRLPRPRPRPVVYPRP	-0.228
RRIRYRPPRLPRPRPRPYVSPRP	-0.0075
RRIRHRPPRLPRPRPRPHEYPRP	-0.293
RRIRQRPPRLPRPRPRPRWMPRP	0.0157
RRIRTRPPRLPRPRPRPWQSPRP	0.0475
RRIRMRPPRLPRPRPRPEWRPRP	0.829
RRIRPRPPRLPRPRPRPPSCPRP	-0.058
RRIRKRPPRLPRPRPRPHHIPRP	-0.165
RRIRRRPPRLPRPRPRPSMAPRP	-0.142
RRIRGRPPRLPRPRPRPHDSPRP	-0.0179
RRIRWRPPRLPRPRPRPPTEPRP	0.597
RRIRCRPPRLPRPRPRPFFNPRP	-0.687
RRIRCRPPRLPRPRPRPAFWPRP	0.232
RRIRFRPPRLPRPRPRPMIFPRP	-0.364
RRIRHRPPRLPRPRPRPQCTPRP	-0.124
RRIRRRPPRLPRPRPRPRIWPRP	0.666
RRIRTRPPRLPRPRPRPDNWPRP	-0.244
RRIRLRPPRLPRPRPRPRNWPRP	0.751
RRIRARPPRLPRPRPRPEPCPRP	0.126
RRIRFRPPRLPRPRPRPTPDPRP	0.485
RRIRFRPPRLPRPRPRPIFVPRP	0.108
RRIRERPPRLPRPRPRPWKKPRP	-0.0959
RRIRLRPPRLPRPRPRPMCWPRP	0.0663
RRIRHRPPRLPRPRPRPSVYPRP	-0.47

Sequence	shrunken log2 fold change
RRIRVRPPRLPRPRPRPTCVPRP	-0.0916
RRIRSRPPRLPRPRPRPGPAPRP	0.682
RRIRFRPPRLPRPRPRPPDWPRP	0.701
RRIRNRPPRLPRPRPRPIHLPRP	-0.73
RRIRIRPPRLPRPRPRPTFLPRP	-0.679
RRIRGRPPRLPRPRPRPADNPRP	-0.0713
RRIRVRPPRLPRPRPRPSVFPRP	-0.126
RRIRKRPPRLPRPRPRPQAPPRP	0.537
RRIRCRPPRLPRPRPRPPNHPRP	-0.104
RRIRKRPPRLPRPRPRPCKEPRP	-0.0743
RRIRARPPRLPRPRPRPGLAPRP	1
RRIRQRPPRLPRPRPRPAKYPRP	-0.0291
RRIRLRPPRLPRPRPRPLFVPRP	-0.329
RRIRRRPPRLPRPRPRPTFTPRP	0.128
RRIRVRPPRLPRPRPRPILLPRP	-0.815
RRIRDRPPRLPRPRPRPNLDPRP	-0.103
RRIRNRPPRLPRPRPRPFFPPRP	-0.122
RRIRTRPPRLPRPRPRPMYPPRP	0.0537
RRIRFRPPRLPRPRPRPMYIPRP	-1.09
RRIRWRPPRLPRPRPRPCMPPRP	-0.425
RRIRWRPPRLPRPRPRPGMPPRP	0.294
RRIRWRPPRLPRPRPRPYYAPRP	-0.195
RRIRHRPPRLPRPRPRPMMVPRP	-0.0274
RRIRERPPRLPRPRPRPQVTPRP	-0.118
RRIRIRPPRLPRPRPRPSGFPRP	-0.175

Sequence	shrunken log2 fold change
RRIRCRPPRLPRPRPRPKSWPRP	0.323
RRIRTRPPRLPRPRPRPECWPRP	0.53
RRIRFRPPRLPRPRPRPSTFPRP	-0.945
RRIRFRPPRLPRPRPRPWGEPRP	0.0156
RRIRIRPPRLPRPRPRPDTCPRP	0.0578
RRIRFRPPRLPRPRPRPWDHPRP	-0.483
RRIRWRPPRLPRPRPRPNQVPRP	0.0796
RRIRRRPPRLPRPRPRPGNKPRP	-0.176
RRIRGRPPRLPRPRPRPATFPRP	0.326
RRIRIRPPRLPRPRPRPVKFPRP	-0.0946
RRIRQRPPRLPRPRPRPPVCPRP	-0.0828
RRIRQRPPRLPRPRPRPMIFPRP	-0.0627
RRIRLRPPRLPRPRPRPGQWPRP	0.17
RRIRKRPPRLPRPRPRPGDNPRP	0.046
RRIRWRPPRLPRPRPRPINIPRP	-1.2
RRIRMRPPRLPRPRPRPYFKPRP	-0.647
RRIRSRPPRLPRPRPRPSNQPRP	-0.242
RRIRLRPPRLPRPRPRPFCSPRP	1.91
RRIRYRPPRLPRPRPRPDSVPRP	-0.338
RRIRFRPPRLPRPRPRPWIPPRP	-0.432
RRIRARPPRLPRPRPRPITYPRP	-0.0353
RRIRSRPPRLPRPRPRPRTIPRP	-0.141
RRIRCRPPRLPRPRPRPHMTPRP	-0.331
RRIRERPPRLPRPRPRPGNAPRP	-0.0685
RRIRFRPPRLPRPRPRPFFIPRP	-0.429
